Assay results taken from patent US20030207791A1 (published 2003).

B1: AML1-ETO (other, UniProt Q01196 1-177, looked up)
chain: MRIPVDASTSRRFTPPSTALSPGKMSEALPLGAPDAGAALAGKLRSGDRSMVEVLADHPGELVRTDSPNFLCSVLPTHWRCNKTLPIAFKVVALGDVPDGTLVTVMAGNDENYSAELRNATAAMKNQVARFNDLRFVGRSGRGKSFTLTITVFTNPPQVATYHRAIKITVDGPREPRDRTEKHSTMPDSPVDVKTQSRLTPPTMPPPPTTQGAPRTSSFTPTTLTNGTSHSPTALNGAPSPPNGFSNGPSSSSSSSLANQQLPPACGARQLSKLKRFLTTLQQFGNDISPEIGERVRTLVLGLVNSTLTIEEFHSKLQEATNFPLRPFVIPFLKANLPLLQRELLHCARLAKQNPAQYLAQHEQLLLDASTTSPVDSSELLLDVNENGKRRTPDRTKENGFDREPLHSEHPSKRPCTISPGQRYSPNNGLSYQPNGLPHPTPPPPQHYRLDDMAIAHHYRDSYRHPSHRDLRDRNRPMGLHGTRQEEMIDHRLTDREWAEEWKHLDHLLNCIMDMVEKTRRSLTVLRRCQEADREELNYWIRRYSDAEDLKKGGGSSSSHSRQQSPVNPDPVALDAHREFLHRPASGYVPEEIWKKAEEAVNEVKRQAMTELQKAVSEAERKAHDMITTERAKMERTVAEAKRQAAEDALAVINQQEDSSESCWNCGRKASETCSGCNTARYCGSFCQHKDWEKHHHICGQTLQAQQQGDTPAVSSSVTPNSGAGSPMDTPPAATPRSTTPGTPSTIETTPR
notes: The plasmid list names pcDNA3-myc-AML1-ETO; Also made in bacteria as an MBP fusion, MBP removed by factor Xa; also called myc-AML1-ETO
B2: isolated coiled coil domain of PML (other)
chain: SELKCDISAEIQQRQEELDAMTQALQALQEQDSAEGAVHAQMHAAVGQLGRARAETEELIRERVRQVVAHVRAQERELLEAVDARYQRDYEEMASRLGRLDAVLQRIRTGSALVQRMKCYASDQEVLDMHGFLRQALCRLR
notes: Expressed in BL21 as a GST fusion and freed by site-specific cleavage; also called CC; CC domain of PML

Key:
[1] = target: the molecule itself; test: gel filtration
[2] = target: the molecule itself; test: gel filtration and in vitro cross-linking of the purified domain

| Protein | binding result [1] | binding result [2] |
| --- | --- | --- |
| B1 | binds |  |
| B2 |  | binds |
